Experimental findings from US20210206856A1 (PANDION OPERATIONS, published 2021) are described below.

T1: mouse MAdCAM expressed on cells (mouse, UniProt Q61826 22-405)
T1 construct: whole, on cells
T1 sequence (looked up): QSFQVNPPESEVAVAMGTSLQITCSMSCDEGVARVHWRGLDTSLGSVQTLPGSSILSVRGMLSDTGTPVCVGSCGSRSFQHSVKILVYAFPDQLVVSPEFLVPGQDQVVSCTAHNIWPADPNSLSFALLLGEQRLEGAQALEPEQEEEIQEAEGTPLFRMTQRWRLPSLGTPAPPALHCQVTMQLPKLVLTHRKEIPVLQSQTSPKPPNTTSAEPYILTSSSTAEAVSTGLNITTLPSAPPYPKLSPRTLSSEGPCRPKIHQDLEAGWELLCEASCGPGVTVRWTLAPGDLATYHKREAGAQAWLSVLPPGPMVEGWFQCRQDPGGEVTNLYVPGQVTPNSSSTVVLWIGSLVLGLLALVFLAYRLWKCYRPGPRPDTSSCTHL

T2: human MAdCAM expressed on cells (human, UniProt Q13477 19-382)
T2 construct: whole, on cells; also called MADCAM1
T2 sequence (looked up): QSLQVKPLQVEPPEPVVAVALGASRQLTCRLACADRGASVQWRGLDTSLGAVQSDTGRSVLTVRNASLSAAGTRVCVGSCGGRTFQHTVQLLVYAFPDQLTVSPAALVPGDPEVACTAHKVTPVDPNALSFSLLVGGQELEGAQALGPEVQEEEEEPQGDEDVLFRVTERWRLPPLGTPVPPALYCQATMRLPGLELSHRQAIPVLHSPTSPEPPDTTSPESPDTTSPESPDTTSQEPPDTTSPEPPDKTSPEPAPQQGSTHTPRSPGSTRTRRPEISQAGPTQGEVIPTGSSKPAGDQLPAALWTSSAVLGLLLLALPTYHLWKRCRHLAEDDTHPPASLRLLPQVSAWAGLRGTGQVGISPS

B1: MAdCAM Antibody Table 2 Clone 54 (antibody, human IgG1, V domains shown)
VH: QVQLVQSGAEVKKPGSSVKVSCKASGGTLSRYGVSWVRQAPGQGLEWMGGIIPIFGTTNYAQKFQGRVTITADESTSTAYMELSSLRSEDTAVYYCARDRVYYDSSGYPTWYFDLWGRGTLVTVSS
VL: EIVMTQSPATLSVSPGERATLSCRASQSVSSSYLAWYQQKPGQAPRLLIYGASTRATGIPARFSGSGSGTEFTLTISSLQSEDFAVYYCQQYGSSPITFGQGTKVEIK
B2: MAdCAM Antibody Table 2 Clone 55 (antibody, human IgG1, V domains shown)
VH: EVQLLESGGGLVQPGGSLRLSCAASGFTFDDFAMHWVRQAPGKGLEWVSGISGNGDSRYYADSVKGRFTISRDNSKNTLYLQMNSLRAEDTAVYYCARDASYGGNYGMDVWGQGTTVTVSS
VL: DIQMTQSPSSLSASVGDRVTITCQASQDIRNYLNWYQQKPGKAPKLLIYKASTLESGVPSRFSGSGSGTDFTLTISSLQPEDFATYYCQQANSFPLTFGPGTKVDIK
B3: MAdCAM Antibody Table 2 Clone 57 (antibody, human IgG1, V domains shown)
VH: EVQLLESGGGLVQPGGSLRLSCAASGFSVSSNYMSWVRQAPGKGLEWVAGISYDGSSKPYADSVKGRFTISRDNSKNTLYLQMNSLRAEDTAVYYCARSRGIAARPLQHWGQGTLVTVSS
VL: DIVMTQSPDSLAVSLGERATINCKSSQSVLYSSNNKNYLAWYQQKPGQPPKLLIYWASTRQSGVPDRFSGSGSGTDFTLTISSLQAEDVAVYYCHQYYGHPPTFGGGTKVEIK
B4: MAdCAM Antibody Table 2 Clone 58 (antibody, human IgG1, V domains shown)
VH: B3 VH
VL: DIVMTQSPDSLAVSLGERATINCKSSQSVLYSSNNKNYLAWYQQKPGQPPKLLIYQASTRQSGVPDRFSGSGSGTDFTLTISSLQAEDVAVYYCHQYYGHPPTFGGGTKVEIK
B5: MAdCAM Antibody Table 2 Clone 53 (antibody, human IgG1, V domains shown)
VH: QVQLVQSGAEVKKPGASVKVSCKASGYTFTSYYMHWVRQAPGQGLEWMGWMNPNSGNTGYAQKFQGRVTMTRDTSTSTVYMELSSLRSEDTAVYYCAREGLGYCTNGVCWNYYGMDVWGQGTLVTVSS
VL: DIQMTQSPSSLSASVGDRVTITCRASQGISSWLAWYQQKPGKAPKLLIYGASSLQSGVPSRFSGSGSGTDFTLTISSLQPEDFATYYCQQSYSTPYTFGQGTKVEIK
B6: MAdCAM Antibody Table 2 Clone 56 (antibody, human IgG1, V domains shown)
VH: EVQLVESGGGLVKPGGSLRLSCAASGFTFSSYWMSWVRQAPGKGLEWVSAIGTGGGTYYAAPVKGRFTISRDDSKNTLYLQMNSLKTEDTAVYYCAREWLVPYYGMDVWGQGTTVTVSS
VL: B5 VL with G28S, S31R, S53N, Y96W
B7: MAdCAM Antibody Table 2 Clone 60 (antibody, human IgG1, V domains shown)
VH: EVQLLESGGGLVQPGGSLRLSCAASGFTFSDHGMHWVRQAPGKGLEWVSVIYGGESTYYADSVKGRFTISRDNSKNTLYLQMNSLRAEDTAVYYCARDPAVAGGGIFDYWGQGTLVTVSS
VL: B5 VL with S31N, W32Y, G50D, S53N, Q55E, S56T, P95C, V104L
B8: MAdCAM Antibody Table 2 Clone 61 (antibody, human IgG1, V domains shown)
VH: QVQLVQSGAEVKKPGASVKVSCKASGDTFTGYYIHWVRQAPGQGLEWMGWINPNSGGTNYAQKFQGRVTMTRDTSTSTVYMELSSLRSEDTAVYYCARSGLWLGSYYGMDVWGQGTLVTVSS
VL: B5 VL with G28T, S31I, G50D, S53T, S91Y, Y92S, T94Y, Y96L

Residue numbers refer to the chain shown, from its start.

In the first assay the target is T1, mouse MAdCAM expressed on cells. The experiment in a line: cell binding.
Consider B1, for which the binding result is on record as “no binding”.
Turning to B2, the binding result is recorded as “no binding”.
Same read-out and setting: to B3 belongs “no binding”.
Turning to B4, the binding result was “no binding”.
On the same count and under the same terms, to B5 belongs “no binding”.
On to B6, for which the binding result is “no binding”.
On the same count and under the same terms, to B7 belongs “binds”; to B8, “no binding”.

For a further assay, the target named is T2, human MAdCAM expressed on cells. Description: cell binding.
As for B1, the binding result is on record as “binds”.
Still for that read-out and setting: the entry for B2 is “binds”; for B3 it is “binds”; for B4 it is “binds”.
The same measure, in the same setting: the entry for B5 is “binds”; for B6 it is “binds”; for B7 it is “binds”.
Same read-out and setting: the entry for B8 is “binds”.
